# Data reported in publication PMC9322661.
# Target: Taxol-stabilized microtubules (porcine brain tubulin) (porcine)
# Assay: TIRF single-molecule motility assay
# Taxol-stabilized microtubules (porcine brain tubulin) (porcine), sequence (P02550 whole entry, chain 1 of 2): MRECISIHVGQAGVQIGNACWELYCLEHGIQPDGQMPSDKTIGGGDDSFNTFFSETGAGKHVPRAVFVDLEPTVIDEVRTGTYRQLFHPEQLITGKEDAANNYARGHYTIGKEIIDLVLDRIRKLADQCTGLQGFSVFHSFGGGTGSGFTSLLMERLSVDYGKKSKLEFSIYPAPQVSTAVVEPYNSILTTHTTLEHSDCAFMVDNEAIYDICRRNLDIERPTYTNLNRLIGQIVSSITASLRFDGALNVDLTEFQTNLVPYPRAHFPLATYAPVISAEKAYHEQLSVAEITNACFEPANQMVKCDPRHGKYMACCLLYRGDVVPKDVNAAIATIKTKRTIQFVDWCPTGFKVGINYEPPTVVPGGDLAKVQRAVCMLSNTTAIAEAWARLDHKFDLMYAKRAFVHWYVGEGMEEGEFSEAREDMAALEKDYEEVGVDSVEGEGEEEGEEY
# Taxol-stabilized microtubules (porcine brain tubulin) (porcine), sequence (P02554 whole entry, chain 2 of 2, further chain): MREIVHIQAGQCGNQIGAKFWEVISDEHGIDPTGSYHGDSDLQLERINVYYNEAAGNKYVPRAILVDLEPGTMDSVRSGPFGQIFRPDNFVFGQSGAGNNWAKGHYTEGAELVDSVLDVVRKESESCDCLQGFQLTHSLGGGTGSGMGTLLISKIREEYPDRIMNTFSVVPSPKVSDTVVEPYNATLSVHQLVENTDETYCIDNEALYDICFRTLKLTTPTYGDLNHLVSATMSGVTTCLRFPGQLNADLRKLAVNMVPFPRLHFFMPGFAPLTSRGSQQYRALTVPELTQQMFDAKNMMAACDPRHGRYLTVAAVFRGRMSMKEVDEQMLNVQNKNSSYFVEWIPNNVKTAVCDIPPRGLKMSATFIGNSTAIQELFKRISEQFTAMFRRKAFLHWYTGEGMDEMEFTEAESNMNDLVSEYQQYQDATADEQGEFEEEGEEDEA
substance,measurement,value
full-length KIF5A(∆exon27)::mSca (from UniProt Q12840 1-1032) (natural protein),landing rate (motors/μm/s/μM),8.3
